The values below are quoted from earlier work in patent publication US20260193255A1, “7-AZAINDOLE COMPOUNDS, PREPARATION METHOD THEREFOR, AND USE THEREOF” (Fudan University, priority 2022, published 2026).

The subject of the data set is cachectic patients. The settings on record: 30 mg/kg, Phase II; cited from earlier work.

B1: Bimagrumab: antibody inhibitor of ActRIIB under development by Novartis (antibody, chains of the INN, looked up, V domains shown)
VH: QVQLVQSGAEVKKPGASVKVSCKASGYTFTSSYINWVRQAPGQGLEWMGTINPVSGSTSYAQKFQGRVTMTRDTSISTAYMELSRLRSDDTAVYYCARGGWFDYWGQGTLVTVSS
VL: QSALTQPASVSGSPGQSITISCTGTSSDVGSYNYVNWYQQHPGKAPKLMIYGVSKRPSGVSNRFSGSKSGNTASLTISGLQAEDEADYYCGTFAGGSYYGVFGGGTKLTVL
With B1, the “Increase of muscle volume” value was 5.0-7.8%.
